From patent publication US8029979B2, “Method for determining the substrate specificity of an enzyme” (JPT Peptide Technologies GmbH, priority 2001, dated 2011)
BA1 = not defined here

Columns and labels:
[1] = target: T1, protein kinase A (Bos taurus, UniProt P00517); experiment: Time-dependent incubation of various modified surfaces with protein kinase A (FIG. 3, Example 31); format: biochemical; conditions: protein kinase A 2 U/mL, incubated for the given time at 25° C.
T1 construct: purchased Sigma P26452 as printed
Description: FIG. 3. The peptide Leu-Arg-Arg-Ala-Ser-Leu-Gly-NH2, modified at the N-terminus with the dipeptide cysteinyl-β-alanine, was coupled to maleinimido-functionalised surfaces by a Michael addition (maleinimido-functionalised glass surface, Sigma, Silane-Prep™, S4651; as well as maleinimidobutyryl-β-alanine-functionalised, modified polypropylene membranes). The modified glass surfaces were first pre-incubated for 10 minutes using 20 mL of 100 μM ATP solution in 50 mM of sodium phosphate buffer pH 7.5. […] (Example 31). The phosphorylation of the corresponding peptides was detected using a FUJIFILM PhosphorImager. The signal intensity of the respective spot is given below the figures. […] FIG. 4. […] After incubation for 30 min at 25° C. the phosphorylation of the corresponding peptides was detected using a FUJIFILM PhosphorImager. […] After incubation for 30 min at 25° C. the phosphorylation of the corresponding peptides was detected using a FUJIFILM PhosphorImager. […]
After drying the glass surface the quantity of radioactive phosphate incorporated in the glass-surface-bound peptides was determined using a PhosphorImager system (FLA-3000, FUJIFILM) (see FIG. 3).

[2] = target: T1, protein kinase A; experiment: Incubation of various modified surfaces (glass, cellulose, polypropylene) with protein kinase A (FIG. 2, Example 30); format: biochemical; conditions: protein kinase A 2 U/mL, 30 minutes at 25° C.
Description: FIG. 2. The peptide Leu-Arg-Arg-Ala-Ser-Leu-Gly-NH2 and the control peptide […], each modified at the N-terminus with the dipeptide cysteinyl-β-alanine, were coupled to a maleinimido-functionalised surface by a Michael addition (Example 1; maleinimidobutyryl-β-alanine-functionalised cellulose as well as maleinimidobutyryl-β-alanine-functionalised, modified polypropylene membranes). The surfaces thus modified were first pre-incubated for 10 minutes using 10 mL of 100 μM ATP solution in 50 mM of sodium phosphate buffer pH 7.5. […] (Example 30). The phosphorylation of the corresponding peptides was detected using a FUJIFILM PhosphorImager. The signal intensity of the respective spot is given below the figures. […] In the case of the modified glass surfaces, however, the signal for the substrate amino acid sequence is a factor of 4-5 larger than the signal for the corresponding control amino acid sequence. […]
After drying the glass surface the quantity of radioactive phosphate incorporated in the glass-surface-bound peptides was determined using a PhosphorImager system (FLA-3000, FUJIFILM) (see FIG. 2).

Substance: Cys-BA1-Leu-Arg-Arg-Ala-Ser-Leu-Gly-NH2 ({Cys-BA1}-LRRASLG-NH2; reading uncertain; also: printed as Cys-BA1-Leu-Arg-Arg-Ala-Ser-Leu-Gly-NH2) [compound 85]
- kinase-mediated incorporation of radioactivity into the substrate amino acid sequence ([1]; modified glass surfaces): clear time dependence
- kinase-mediated phosphorylation signal on polypropylene ([1]; modified polypropylene surfaces): only non-specific binding of ATP or kinase to the peptides is measured
- kinase-mediated phosphorylation signal on porous surfaces ([2]; modified cellulose or polypropylene surfaces): only non-specific binding of ATP or kinase to the peptides is measured
- signal for the substrate amino acid sequence larger than the signal for the corresponding control amino acid sequence ([2]; modified glass surfaces): 4-5 factor
